# According to publication PMC9691366, “Modulating the pharmacokinetic profile of Actinium-225-labeled macropa-derived radioconjugates by dual targeting of PSMA and albumin” (Theranostics, 2022):
# What was measured:
# [1] = Ex vivo biodistribution in LNCaP tumor-bearing SCID mice; details: mouse, in vivo, 50 kBq per mouse; for tissue uptake at 1 h: 1 h p.i.; for tissue uptake at 4 h: 4 h p.i.; for tissue uptake at 24 h: 24 h p.i.; for tissue uptake at 48 h: 48 h p.i.; for tissue uptake at 72 h: 72 h p.i.; for tissue uptake at 120 h: 120 h p.i.
# From the text: (§1) The biodistribution experiments with [^225Ac]Ac-mcp-M-alb-PSMA and [^225Ac]Ac-mcp-D-alb-PSMA were accomplished using LNCaP tumor-bearing mice. The SCID male mice (ENVIGO, Indianapolis, IN, USA) 8 weeks old were subcutaneously xenografted into the right flank with 10∙10^6 LNCaP cells (ATCC, Manassas, VA, USA) mixed with Matrigel Matrix (Corning Inc., Corning, NY, USA) at a 1:1 ratio. The tumor growth was periodically monitored by caliper-based measurements. When the tumor volume reached 200-300 mm^3 (i.e., approx. 6 weeks after the xenografting of the cells), the mice were enrolled in the biodistribution study. All experimental animals were housed in a specific-pathogen-free animal facility and all experiments with animals were performed in accordance with appropriate legal norms (Czech Law No. 246/1992) and with the approval of the Ministry of Education, Youth and Sports (MSMT-35035/2019-3) and approval of the Ethical committee of Faculty of Medicine and Dentistry, Palacky University in Olomouc. The number of animals was reduced as much as possible (n = 3-4 per group and time point) for in vivo experiments in order to strictly follow 3Rs principle.
# (§2) For the purpose of biodistribution studies, the ^225Ac-radioconjugates were diluted with saline. The diluted ^225Ac-radioconjugates were applied retro-orbitally (r.o.) to the experimental animals at a dose of 50 kBq per mouse corresponding to 10 pmol of the PSMA-inhibitor. The radioactivity application was carried out under 2% isoflurane anesthesia (FORANE, Abbott Laboratories, Abbott Park, IL, USA) to minimize animal suffering and to prevent animal motion. The mice were sacrificed by cervical dislocation 1, 4, 24, 48, 72, and 120 h (plus 168 h for [^225Ac]Ac-mcp-D-alb-PSMA) post-injection and organs of interest (blood, spleen, pancreas, stomach, intestine, kidneys, liver, heart, lungs, muscle, bone, and tumor) were collected. The organs were weighed, and their radioactivity was counted on an automatic gamma counter. The uptake of the ^225Ac-radioconjugates was expressed as a percentage of injected dose per gram of the corresponding organ (%ID/g). The area under the curve (AUC) was determined for both tested PSMA ligands from non-decay-corrected data obtained from the ex vivo biodistribution data of the tumors, kidneys, and blood.
# [2] = tested on: LNCaP tumor-bearing SCID mice; test: as above
# From the text: as §1, §2
# [3] = non-decay corrected biodistribution data, mean ± SD
compound,measurement,setting,value
"O=C(O)CC[C@H](NC(=O)N[C@@H](CCCCNC(=O)[C@H](Cc1ccc2ccccc2c1)NC(=O)[C@H]1CC[C@H](CNC(=O)[C@H](CCCCn2cc(COc3cc(CN4CCOCCOCCN(Cc5cccc(C(=O)O)n5)CCOCCOCC4)nc(C(=O)O)c3)nn2)NC(=O)[C@H](CCC(=O)O)NC(=O)CCCc2ccc(I)cc2)CC1)C(=O)O)C(=O)O [[^225Ac]Ac-mcp-M-alb-PSMA, metal not drawn]",tissue to tissue ratio,"[1]; male, SCID, total radioactivity",1490
same,tissue uptake at 1 h,[1]; blood uptake (AV),6.47 %ID/g
same,tissue uptake at 4 h,[1]; blood uptake (AV),4.8 %ID/g
same,tissue uptake at 24 h,[1]; blood uptake (AV),0.54 %ID/g
same,tissue uptake at 48 h,[1]; blood uptake (AV),0.08 %ID/g
same,tissue uptake at 72 h,[1]; blood uptake (AV),0.03 %ID/g
same,tissue uptake at 120 h,[1]; blood uptake (AV),0.03 %ID/g
same,tissue uptake at 1 h,[1]; femur uptake (AV),0.61 %ID/g
same,tissue uptake at 4 h,[1]; femur uptake (AV),0.62 %ID/g
same,tissue uptake at 24 h,[1]; femur uptake (AV),0.32 %ID/g
same,tissue uptake at 48 h,[1]; femur uptake (AV),0.44 %ID/g
same,tissue uptake at 72 h,[1]; femur uptake (AV),0.32 %ID/g
same,tissue uptake at 120 h,[1]; femur uptake (AV),0.43 %ID/g
same,tissue uptake at 1 h,[1]; heart uptake (AV),2.03 %ID/g
same,tissue uptake at 4 h,[1]; heart uptake (AV),1.63 %ID/g
same,tissue uptake at 24 h,[1]; heart uptake (AV),0.34 %ID/g
same,tissue uptake at 48 h,[1]; heart uptake (AV),0.22 %ID/g
same,tissue uptake at 72 h,[1]; heart uptake (AV),0.15 %ID/g
same,tissue uptake at 120 h,[1]; heart uptake (AV),0.23 %ID/g
same,tissue uptake at 1 h,[1]; intestine uptake (AV),0.6 %ID/g
same,tissue uptake at 4 h,[1]; intestine uptake (AV),0.54 %ID/g
same,tissue uptake at 24 h,[1]; intestine uptake (AV),0.81 %ID/g
same,tissue uptake at 48 h,[1]; intestine uptake (AV),0.1 %ID/g
same,tissue uptake at 72 h,[1]; intestine uptake (AV),0.12 %ID/g
same,tissue uptake at 120 h,[1]; intestine uptake (AV),0.06 %ID/g
same,tissue uptake at 1 h,[1]; kidneys uptake (AV),29.5 %ID/g
same,tissue uptake at 4 h,[1]; kidneys uptake (AV),67.9 %ID/g
same,tissue uptake at 24 h,[1]; kidneys uptake (AV),33.1 %ID/g
same,tissue uptake at 48 h,[1]; kidneys uptake (AV),15.7 %ID/g
same,tissue uptake at 72 h,[1]; kidneys uptake (AV),9.59 %ID/g
same,tissue uptake at 120 h,[1]; kidneys uptake (AV),8.82 ± 4.4 %ID/g
same,tissue uptake at 1 h,[1]; liver uptake (AV),1.44 %ID/g
same,tissue uptake at 4 h,[1]; liver uptake (AV),1.43 %ID/g
same,tissue uptake at 24 h,[1]; liver uptake (AV),1.08 %ID/g
same,tissue uptake at 48 h,[1]; liver uptake (AV),1.19 %ID/g
same,tissue uptake at 72 h,[1]; liver uptake (AV),1.08 %ID/g
same,tissue uptake at 120 h,[1]; liver uptake (AV),1.27 %ID/g
same,tissue uptake at 1 h,[1]; lung uptake (AV),6.27 %ID/g
same,tissue uptake at 4 h,[1]; lung uptake (AV),4.99 %ID/g
same,tissue uptake at 24 h,[1]; lung uptake (AV),2.19 %ID/g
same,tissue uptake at 48 h,[1]; lung uptake (AV),1.77 %ID/g
same,tissue uptake at 72 h,[1]; lung uptake (AV),1.47 %ID/g
same,tissue uptake at 120 h,[1]; lung uptake (AV),1.73 %ID/g
same,tissue uptake at 1 h,[1]; muscle uptake (AV),0.53 %ID/g
same,tissue uptake at 4 h,[1]; muscle uptake (AV),0.51 %ID/g
same,tissue uptake at 24 h,[1]; muscle uptake (AV),0.14 %ID/g
same,tissue uptake at 48 h,[1]; muscle uptake (AV),0.07 %ID/g
same,tissue uptake at 72 h,[1]; muscle uptake (AV),0.08 %ID/g
same,tissue uptake at 120 h,[1]; muscle uptake (AV),0.12 %ID/g
same,tissue uptake at 1 h,[1]; pancreas uptake (AV),0.57 %ID/g
same,tissue uptake at 4 h,[1]; pancreas uptake (AV),0.57 %ID/g
same,tissue uptake at 24 h,[1]; pancreas uptake (AV),0.26 %ID/g
same,tissue uptake at 48 h,[1]; pancreas uptake (AV),0.1 %ID/g
same,tissue uptake at 72 h,[1]; pancreas uptake (AV),0.06 %ID/g
same,tissue uptake at 120 h,[1]; pancreas uptake (AV),0.07 %ID/g
same,tissue uptake at 1 h,[1]; spleen uptake (AV),7.24 %ID/g
same,tissue uptake at 4 h,[1]; spleen uptake (AV),3.4 %ID/g
same,tissue uptake at 24 h,[1]; spleen uptake (AV),1.24 %ID/g
same,tissue uptake at 48 h,[1]; spleen uptake (AV),1.31 %ID/g
same,tissue uptake at 72 h,[1]; spleen uptake (AV),1.12 %ID/g
same,tissue uptake at 120 h,[1]; spleen uptake (AV),1.43 %ID/g
same,tissue uptake at 1 h,[1]; stomach uptake (AV),0.83 %ID/g
same,tissue uptake at 4 h,[1]; stomach uptake (AV),0.58 %ID/g
same,tissue uptake at 24 h,[1]; stomach uptake (AV),0.39 %ID/g
same,tissue uptake at 48 h,[1]; stomach uptake (AV),0.17 %ID/g
same,tissue uptake at 72 h,[1]; stomach uptake (AV),0.1 %ID/g
same,tissue uptake at 120 h,[1]; stomach uptake (AV),0.11 %ID/g
same,tissue uptake at 1 h,[1]; tumor uptake (AV),5.96 %ID/g
same,tissue uptake at 4 h,[1]; tumor uptake (AV),18 %ID/g
same,tissue uptake at 24 h,[1]; tumor uptake (AV),29.5 %ID/g
same,tissue uptake at 48 h,[1]; tumor uptake (AV),36.5 %ID/g
same,tissue uptake at 72 h,[1]; tumor uptake (AV),38.7 %ID/g
same,tissue uptake at 120 h,[1]; tumor uptake (AV),46 %ID/g
same,tissue uptake at 128 h,"[1]; tumor uptake (highest accumulation), 128 h p.i.",46 ± 7.77 %ID/g
same,AUCTu-to-AUCBl,"[2]; mouse, in vivo",26
same,AUCTu-to-AUCKi,"[2]; mouse, in vivo",1.5
same,AUCTu-to-AUCLi,"[2]; mouse, in vivo",29
same,blood clearance: duration of excretion,"[2]; mouse, in vivo",24 h
same,maximal tumor uptake compared to counterpart without dedicated albumin binder,"[2]; mouse, in vivo",approximately four times higher
same,AUC Blood,[2]; [3],132 ± 7.2 %ID/g.h
same,AUC Kidneys,[2]; [3],2269 ± 288 %ID/g.h
same,AUC Liver,[2]; [3],119 ± 4.6 %ID/g.h
same,AUC Tumor,[2]; [3],3494 ± 194 %ID/g.h
